Patent publication US20250333760A1, “TEMPERATURE-SENSITIVE NEGATIVE-STRAND RNA VIRUS OR VIRUS VECTOR AND RNA GENOME THEREOF” (REPLI-TECH CO., LTD., priority 2021, published 2025)

Test system: HeLa cells
Test: Relative fluorescence intensity of EmGFP having degron (DD tag and mutants) added, expressed from SeV in HeLa cells
Assay type: cell-based
Conditions: for Relative fluorescence intensity of EmGFP having degron added thereto, Shield1: 1 μM of Shield-1; for Relative fluorescence intensity of EmGFP having degron added thereto, Shield1 / Relative fluorescence intensity of EmGFP having degron added thereto, dTAG-13 / Relative fluorescence intensity of EmGFP having degron added thereto, (—): 3 days after infection, MOI=10; for Relative fluorescence intensity of EmGFP having degron added thereto, dTAG-13: 5 μM of dTAG-13; for Relative fluorescence intensity of EmGFP having degron added thereto, (—): no Shield-1 or dTAG-13; for Shield1/(—) / Shield1/dTAG-13: ratio of relative fluorescence intensities
Excerpt: The addition of a proteolytic tag (degron) to a P protein can facilitate the elimination of a SeV. A DD tag is a type of proteolytic tag (see, for example, US 2009/0215169 A). The DD tag (see SEQ ID NO: 18) is a protein of 107 amino acids in length, obtained by introducing F36V and L106P into FKBP12. Adding a low molecular weight compound, Shield-1 provides stabilization, and adding dTAG-13 also promotes degradation of the protein fused with the tag. In the present Example, a DD mutant (DDm; see SEQ ID NO: 19) having 11 mutations (4I, 18K, 36L, 501, 57K, 59F, 63A, 68L, 90V, 981, and 105R) in a DD tag was constructed. In the present Example, in order to investigate the proteolysis-promoting effect of the DDm, the DD tag and its mutants (including the DDm) were added to EmGFP at its C-terminal and loaded at the + position of the SeV vector (having the above mutation described in WO 2003/025570). HeLa cells were infected with the resulting SeV (MOI=10). On the day after infection, 1 μM of Shield-1 or 5 μM of dTAG-13 was added thereto, and the fluorescence from the cell was observed 3 days after infection. When a DDrs tag having the amino acid sequence set forth in SEQ ID NO: 28 was constructed and added to EmGFP at its C-terminal, the effect of stabilizing EmGFP by Sheild-1 was not obtained and the fluorescence intensity was only about 20% of that of a DD-tagged EmGFP (FIG. 8).

B1: DDm (protein)
chain: GVQIETISPGDGRTFPKKGQTCVVHYTGMLEDGKKLDSSRDRNKPFKFMIGKQEVIKGFEEGAAQMSLGQRAKLTISPDYAYGATGHPGVIPPHATLIFDVELLRPE
Relative fluorescence intensity of EmGFP having degron added thereto, Shield1 (37° C.): 140.4% | Relative fluorescence intensity of EmGFP having degron added thereto, dTAG-13 (37° C.): 0.478% | Relative fluorescence intensity of EmGFP having degron added thereto, (—) (37° C.): 15.0% | Shield1/(—) (37° C.): 9.39 | Shield1/dTAG-13 (37° C.): 293.9 | Relative fluorescence intensity of EmGFP having degron added thereto, Shield1 (38.5° C.): 153% | Relative fluorescence intensity of EmGFP having degron added thereto, dTAG-13 (38.5° C.): 0.05% | Relative fluorescence intensity of EmGFP having degron added thereto, (—) (38.5° C.): 2.5% | Shield1/(—) (38.5° C.): 61.47 | Shield1/dTAG-13 (38.5° C.): 3181.7 | ratio of Shield1/dTAG-13 (in words) (Tables 6 and 7, 37° C. and 38.5° C.): significantly improved
